Two molecules from US20220275053A1, “MODIFIED […] PEPTIDE LIGANDS” (BicycleTx Limited, priority 2019, published 2022) can be followed below.

For assay [1], the target named is T1, CD137 (Homo sapiens, UniProt Q07011).
T1 construct: Human peripheral blood mononuclear cells (PBMCs) were isolated from buffy coats from two donors; endogenous in cells
Briefly: Fluorescent multimers human T-cell competition (receptor occupancy) assay with BCY7340 as labelling reagent. Type of assay: binding. To be noted: unlabelled multimer titrated, 30 minutes at room temperature; 10 nM BCY7340 label; FIG. 5. On the procedure:
Human PBMCs were isolated from fresh buffy coats from two donors according to standard protocols. CD8+ T cells were then isolated from the PBMCs by negative magnetic bead selection with a MACS CD8+ T cell isolation kit (negative bead selection) according to the manufacturer's protocol (Miltenyi Biotec). Purified CD8+ T cells were then stimulated for 72 hours in plates coated with CD3 antibody (1 μg/ml) in R10 media (RPMI1640+10% FBS+1× Pen-Strep). Cells were then incubated with a range of concentrations of unlabelled CD137 multimer for 30 minutes at room temperature in 2% FBS. Cells were then washed and stained for FACS analysis. Briefly, cells were stained in 1× Live/Dead BV510 for 15 minutes, washed, and then surface stained with a primary antibody cocktail (CD8-BV785, CD3-BV605, and CD137-PECy5) that included a saturating concentration (10 nM) of BCY7340. Cells were incubated for 30 minutes at room temperature, washed, and fixed in 2% PFA. Cells were run on the BD FACSCelesta and FCS files were analyzed in FlowJo. Cells were gated on Single/Live/Lymphocytes/CD8+(or CD3+)/CD137+ or CD137−. The Alexa Fluor 488 geometric mean of the CD137+ population is shown.

The target of assay [2] is T2, human CD137 (human, UniProt Q07011 24-255).
T2 construct: whole, on cells; Endogenous receptor on CD3-stimulated human PBMCs or purified CD8+ T cells; also called CD137 receptor; 4-1BB
Put plainly: flow cytometry on CD3-stimulated human PBMCs, apparent affinity (kd,app), CD8+ CD137+ population, donor 217071. On the procedure:
(§1) Plates were then incubated for 1 hour at 37° C., 5% CO₂. Post-incubation, plate was centrifuged at 500 rpm for 5 minutes and supernatant discarded. Samples were then washed once in 200 μL of 1× phosphate buffer saline (PBS; Gibco™ 10-010-023) at 500 rpm for 5 minutes. Cells were resuspended in 200 μL of PBS and transferred to a 96-well V-bottom polypropylene plate (Greiner Bio-One 651201). Samples were then centrifuged at 500 rpm for 5 minutes and supernatant was discarded.
(§2) Preparation of samples for flow cytometry: Zombie Violet™ Fixable Viability Dye (BioLegend® 423113) was prepared as a 1:1000 dilution in PBS and 100 μL of viability dye was added to each well and incubated in the dark at 4° C. for 30 minutes. Subsequently, wells were washed with 100 μL of PBS for 5 minutes at 500 rpm and supernatant was discarded. […] Cells resuspended in 200 μL of stain buffer were kept at 4° C. and in the dark until read by BD FACSCelesta™ flow cytometer and FCS files were analyzed in FlowJo™.
(§3) Cells were gated on lymphocytes→singlets→live→CD4+ or CD8+→CD137+/− and the geometric mean of Alexa Fluor® 488 (conjugated to BCY15416) was calculated from the CD137+ and CD137− populations shown below. […] Calculated binding affinity (kd,app) for each donor appear in Table 5. […]
On the technique in general: In flow cytometry, cells or beads pass a laser one at a time.

Assay [3] has as its target T2, human CD137. Put plainly: flow cytometry on CD3-stimulated human PBMCs, apparent affinity (kd,app), CD4+ CD137+ population, donor 214026. As for the experimental part:
as §1, §2, §3

Assay [4] deals with T2, human CD137. Briefly: flow cytometry on CD3-stimulated human PBMCs, apparent affinity (kd,app), CD8+ CD137+ population, donor 214047. On the procedure:
as §1, §2, §3

Assay [5] deals with T2, human CD137. Briefly: flow cytometry on CD3-stimulated human PBMCs, apparent affinity (kd,app), CD8+ CD137+ population, donor 214026. As for the experimental part: as §1, §2, §3
The target of assay [6] is T2, human CD137. Briefly: flow cytometry on CD3-stimulated human PBMCs, apparent affinity (kd,app), CD4+ CD137+ population, donor 217071. As for the experimental part: as §1, §2, §3
Assay [7] concerns the target T2, human CD137. Briefly: flow cytometry on CD3-stimulated human PBMCs, apparent affinity (kd,app), CD4+ CD137+ population, donor 214047. On the procedure:
as §1, §2, §3

*1 amine or outer side, *2 acyl side, *3 side chain or, on linkers, in order; H or OH if unused. Bridges are numbered along the chain shown (N, C = ends). Where no end group is shown, it is not given here. [ ]: non-standard residue; d: D form. PYA = propargyl-acid (alkyne used for click attachment); TATA = O=C(CC[*:1])N1CN(C(=O)CC[*:2])CN(C(=O)CC[*:3])C1; tBuAla = CC(C)(C)C[C@H](N)C(=O)O; Nle = CCCC[C@H](N)C(=O)O

T2 sequence (Q07011 24-255): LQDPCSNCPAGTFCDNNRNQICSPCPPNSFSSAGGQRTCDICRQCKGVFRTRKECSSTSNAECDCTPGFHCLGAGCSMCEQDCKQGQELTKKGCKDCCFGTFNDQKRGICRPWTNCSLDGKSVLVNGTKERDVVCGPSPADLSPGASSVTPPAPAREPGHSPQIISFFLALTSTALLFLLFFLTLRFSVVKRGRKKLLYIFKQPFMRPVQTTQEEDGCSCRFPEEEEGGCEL
T1 sequence (Q07011 24-255): as above

Turning to “BCY8945: Non-modified CD137 multimer: 4 x BCY8927, hinge A, SA n=23, attachment Lys(PYA)3 (Ac-C[tBuAla]PK[dA]PYCFADPY[Nle]CA-NH2; linker 1-8-15 via TATA; not fully specified (residue 4); also: tetramer: 4 peptides on central hinge moiety A via spacer SA n=23)”, the “level of free/unbound CD137 receptor on human T cells (BCY7340 binding)” value in assay [1] is given as “dose responsive decrease in unbound CD137 receptor”.

B1: BCY15416 (peptide)
peptide: Ac-C[tBuAla]PE[dK](PYA)PYCFADPY[Nle]CA
modifications: linker 1-8-15 via TATA; also: dimer: joined through PYA directly to central hinge moiety D, Alexa Fluor 488 on the hinge without spacer (formula (II))
notes: also called fluorescently labelled CD137 dimer; CD137 dimer
In the case of B1, the Kd in assay [2] stood at 0.13 nM; in assay [3] it was 0.875 nM; in assay [4], 0.118 nM; in assay [5], 0.114 nM; in assay [6], 0.13 nM; in assay [7], 0.144 nM.
